Results on 167 variants are retold here after the Human Domainome abundance scans (Beltran et al. 2025).

± gives the uncertainty stated by the source.

B1: Steroid hormone receptor ERR2, residues 100 to 176; numbered along this chain, O95718 (parent)
chain: KRLCLVCGDIASGYHYGVASCEACKAFFKRTIQGNIEYSCPATNECEITKRRRKSCQACRFMKCLKVGMLKEGVRLD

The variants in the series derive from B1. The series is described as follows: abundance fitness (aPCA) (normalised: wild type 0, dead -1); higher = more abundant; growth selection in yeast, the domain comes from the species named. The note with it: Homo sapiens.
Consider R52A, for which the abundance fitness is -0.037 ± 0.054.

R52W: the abundance fitness is -0.043 ± 0.066.

Consider R52K, for which the abundance fitness was -0.115 ± 0.086.

In the case of R52S, the abundance fitness is -0.155 ± 0.068.

For R52H, the abundance fitness was -0.627 ± 0.32.

For R52Q, the abundance fitness worked out at 0.128 ± 0.069.

On to R52F, for which the abundance fitness is -0.056 ± 0.13.

On to A19C, for which the abundance fitness is -0.41 ± 0.1.

As for A19P, the abundance fitness was -0.065 ± 0.074.

On to A19T, for which the abundance fitness is -0.085 ± 0.056.

Regarding A19S, the abundance fitness was found to be 0.049 ± 0.045.

In the case of A19V, the abundance fitness is 0.035 ± 0.038.

As to S12P, the abundance fitness is -0.161 ± 0.087.

For S12W, the abundance fitness was -0.253 ± 0.083.

As for S12N, the abundance fitness was -0.019 ± 0.087.

In the case of S12Y, the abundance fitness was -0.32 ± 0.12.

S12T: the abundance fitness was -0.138 ± 0.06.

Take S12M: the abundance fitness is -0.118 ± 0.063.

As to S12E, the abundance fitness is -0.02 ± 0.062.

Regarding R2N, the abundance fitness stood at 0.04 ± 0.1.

Take R2H: the abundance fitness stood at 0.072 ± 0.11.

For the variant C24A, the abundance fitness was -0.897 ± 0.095.

Take C24S: the abundance fitness is -0.869 ± 0.11.

Consider C24Q, for which the abundance fitness was -0.685 ± 0.12.

Take C24M: the abundance fitness was -0.859 ± 0.11.

With K66T, the abundance fitness came to 0.162 ± 0.052.

K66Y: the abundance fitness is -0.508 ± 0.19.

For K66Q, the abundance fitness is -0.03 ± 0.072.

Regarding E22Q, the abundance fitness was -0.092 ± 0.058.

Take E22I: the abundance fitness was -0.459 ± 0.12.

In the case of E22Y, the abundance fitness was -0.152 ± 0.076.

Turning to V74Y, the abundance fitness was -0.319 ± 0.16.

Turning to V74K, the abundance fitness is -0.124 ± 0.078.

As for V74T, the abundance fitness is -0.129 ± 0.08.

For V74D, the abundance fitness was 0.03 ± 0.091.

As to V74G, the abundance fitness was -0.089 ± 0.039.

In the case of V74C, the abundance fitness was -0.501 ± 0.13.

As for V74M, the abundance fitness is -0.13 ± 0.075.

Consider V74E, for which the abundance fitness is 0.08 ± 0.054.

Turning to V74N, the abundance fitness was -0.036 ± 0.11.

Regarding A42L, the abundance fitness was -0.064 ± 0.042.

As to A42R, the abundance fitness was -0.024 ± 0.039.

Turning to A42M, the abundance fitness was -0.033 ± 0.071.

Regarding A42I, the abundance fitness was 0.027 ± 0.094.

On to E37N, for which the abundance fitness was -0.575 ± 0.21.

As for E37Y, the abundance fitness is -0.745 ± 0.26.

For E37H, the abundance fitness is -0.19 ± 0.14.

E37P: the abundance fitness was -0.507 ± 0.14.

On to E37G, for which the abundance fitness is -0.122 ± 0.041.

Consider E37I, for which the abundance fitness was -0.341 ± 0.18.

As for E37F, the abundance fitness is -0.851 ± 0.42.

In the case of E37D, the abundance fitness was -0.423 ± 0.12.

For the variant L65A, the abundance fitness was -0.256 ± 0.064.

As for L65G, the abundance fitness is -0.534 ± 0.055.

As for L65P, the abundance fitness was -0.753 ± 0.17.

On to L65T, for which the abundance fitness is -0.516 ± 0.093.

As to L65R, the abundance fitness is -0.459 ± 0.052.

Turning to L65E, the abundance fitness was -0.132 ± 0.054.

Regarding A23D, the abundance fitness amounted to 0.049 ± 0.1.

For A23E, the abundance fitness was found to be 0.094 ± 0.054.

In the case of A23C, the abundance fitness was determined as 0.094 ± 0.067.

Turning to A23Y, the abundance fitness is -0.56 ± 0.18.

In the case of A23I, the abundance fitness was -0.806 ± 0.41.

Take A23K: the abundance fitness is -0.03 ± 0.059.

Take A23F: the abundance fitness was -0.538 ± 0.24.

On to T31G, for which the abundance fitness was -0.484 ± 0.052.

Turning to T31M, the abundance fitness was -0.223 ± 0.073.

With T31D, the abundance fitness was -0.724 ± 0.2.

T31P: the abundance fitness is -0.951 ± 0.19.

As for C40K, the abundance fitness was -0.781 ± 0.17.

Take C40N: the abundance fitness was -0.586 ± 0.26.

With C40W, the abundance fitness is -0.94 ± 0.12.

C40F: the abundance fitness was -0.876 ± 0.31.

C40S: the abundance fitness is -0.632 ± 0.094.

Regarding R53E, the abundance fitness was 0.073 ± 0.061.

Consider R53G, for which the abundance fitness worked out at 0.049 ± 0.043.

Regarding R53F, the abundance fitness came out at 0.065 ± 0.08.

For R53V, the abundance fitness was -0.008 ± 0.054.

For Y14M, the abundance fitness was -0.276 ± 0.083.

As for Y14G, the abundance fitness was -0.017 ± 0.051.

As to Y14Q, the abundance fitness is -0.145 ± 0.083.

As to Y14I, the abundance fitness was determined as 0.03 ± 0.091.

On to S20N, for which the abundance fitness came out at 0.131 ± 0.077.

With S20Y, the abundance fitness was -0.109 ± 0.12.

Consider S20E, for which the abundance fitness is -0.232 ± 0.051.

In the case of S20V, the abundance fitness turned out to be 0.34 ± 0.039.

K54Q: the abundance fitness is 0.195 ± 0.065.

Consider K54F, for which the abundance fitness is -0.243 ± 0.12.

For the variant K54T, the abundance fitness is -0.024 ± 0.066.

For L5R, the abundance fitness was -0.197 ± 0.045.

On to L5V, for which the abundance fitness is -0.424 ± 0.067.

Regarding L5C, the abundance fitness was -0.375 ± 0.14.

As for L5A, the abundance fitness was -0.192 ± 0.055.

Regarding L5T, the abundance fitness was -0.031 ± 0.06.

Regarding L5F, the abundance fitness is -0.133 ± 0.11.

With L5K, the abundance fitness is -0.143 ± 0.062.

For the variant R75F, the abundance fitness was -0.014 ± 0.079.

On to R75Q, for which the abundance fitness came to 0.153 ± 0.054.

For R75C, the abundance fitness was determined as 0.117 ± 0.067.

On to R75V, for which the abundance fitness turned out to be 0.002 ± 0.042.

Turning to R75Y, the abundance fitness was -0.102 ± 0.095.

Take R75H: the abundance fitness was -0.165 ± 0.11.

Turning to C46T, the abundance fitness is -0.766 ± 0.15.

With C46W, the abundance fitness is -0.733 ± 0.098.

For C46R, the abundance fitness was -0.704 ± 0.082.

Regarding C46P, the abundance fitness was -0.796 ± 0.17.

For the variant C64R, the abundance fitness is -0.751 ± 0.073.

As to C64P, the abundance fitness was -0.747 ± 0.16.

As to C64Y, the abundance fitness was -0.95 ± 0.26.

C64M: the abundance fitness is -0.273 ± 0.081.

With E72H, the abundance fitness was -0.368 ± 0.18.

Turning to E72S, the abundance fitness was -0.051 ± 0.054.

E72F: the abundance fitness was -0.556 ± 0.15.

For the variant E72T, the abundance fitness was -0.104 ± 0.063.

Regarding E72I, the abundance fitness is -0.299 ± 0.14.

Take Y38S: the abundance fitness was -0.518 ± 0.08.

In the case of Y38V, the abundance fitness is -0.541 ± 0.089.

Consider Y38G, for which the abundance fitness is -0.394 ± 0.057.

Take Q33H: the abundance fitness was -0.229 ± 0.11.

In the case of Q33N, the abundance fitness was -0.383 ± 0.13.

Take Q33V: the abundance fitness was -0.148 ± 0.048.

Take Q33T: the abundance fitness is -0.193 ± 0.089.

As to Q33Y, the abundance fitness is -0.054 ± 0.14.

For the variant Q33W, the abundance fitness is -0.411 ± 0.073.

Turning to K29C, the abundance fitness is -0.335 ± 0.11.

For K29Y, the abundance fitness is -0.65 ± 0.25.

Regarding K29M, the abundance fitness is -0.064 ± 0.065.

In the case of K29E, the abundance fitness was found to be 0.217 ± 0.053.

In the case of K29Q, the abundance fitness came out at 0.129 ± 0.054.

With K29A, the abundance fitness was found to be 0.18 ± 0.043.

Take L70S: the abundance fitness was found to be 0.083 ± 0.052.

Consider L70M, for which the abundance fitness is -0.03 ± 0.08.

Turning to L70W, the abundance fitness is -0.032 ± 0.053.

Take L70T: the abundance fitness came out at 0.011 ± 0.062.

For the variant L70Q, the abundance fitness was -0.035 ± 0.085.

On to L70E, for which the abundance fitness was 0.101 ± 0.051.

With A58F, the abundance fitness is -0.377 ± 0.17.

In the case of A58T, the abundance fitness was -0.518 ± 0.12.

For A58E, the abundance fitness was -0.235 ± 0.059.

Regarding A58D, the abundance fitness is -0.334 ± 0.098.

In the case of A58W, the abundance fitness was -0.308 ± 0.059.

A58M: the abundance fitness is -0.227 ± 0.076.

On to A58S, for which the abundance fitness is -0.33 ± 0.065.

Consider A58Y, for which the abundance fitness was -0.347 ± 0.11.

With K25H, the abundance fitness is 0.262 ± 0.062.

Take M69R: the abundance fitness is -0.729 ± 0.075.

As to M69T, the abundance fitness was -0.54 ± 0.12.

As to M69W, the abundance fitness was -0.231 ± 0.059.

For F61Q, the abundance fitness is -0.257 ± 0.096.

As to F61M, the abundance fitness came to 0 ± 0.063.

Turning to F61V, the abundance fitness was -0.269 ± 0.053.

On to F61D, for which the abundance fitness was -1.06 ± 0.32.

As for C21I, the abundance fitness was -0.693 ± 0.14.

Consider C21Y, for which the abundance fitness is -0.89 ± 0.41.

Consider C21W, for which the abundance fitness is -0.94 ± 0.15.

For the variant C21N, the abundance fitness was -1 ± 0.38.

Consider K71D, for which the abundance fitness is -0.102 ± 0.08.

K71P: the abundance fitness was -0.19 ± 0.084.

As to K71C, the abundance fitness is -0.006 ± 0.069.

In the case of K71A, the abundance fitness was -0.109 ± 0.054.

Turning to I48M, the abundance fitness is -0.166 ± 0.11.

For I48S, the abundance fitness is -0.108 ± 0.061.

For the variant I48W, the abundance fitness was -0.227 ± 0.13.

As to L76I, the abundance fitness is -0.037 ± 0.15.

L76E: the abundance fitness is 0.146 ± 0.053.

For the variant C56M, the abundance fitness was -0.9 ± 0.16.

In the case of C56I, the abundance fitness is -0.679 ± 0.18.
